Laboratory results taken from US20210261648A1 (published 2021).

T1: FcγRIIb (human, UniProt P31994 43-217)
T1 construct: extracellular domain; also called FcgRIIb; CD32B
T1 sequence (looked up): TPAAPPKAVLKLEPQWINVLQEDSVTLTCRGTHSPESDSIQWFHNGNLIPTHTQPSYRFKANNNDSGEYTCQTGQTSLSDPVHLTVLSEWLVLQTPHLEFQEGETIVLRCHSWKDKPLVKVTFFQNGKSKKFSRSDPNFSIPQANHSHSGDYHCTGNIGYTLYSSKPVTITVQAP

T2: FcγRIIa type R (human, UniProt P12318 34-217)
T2 chain: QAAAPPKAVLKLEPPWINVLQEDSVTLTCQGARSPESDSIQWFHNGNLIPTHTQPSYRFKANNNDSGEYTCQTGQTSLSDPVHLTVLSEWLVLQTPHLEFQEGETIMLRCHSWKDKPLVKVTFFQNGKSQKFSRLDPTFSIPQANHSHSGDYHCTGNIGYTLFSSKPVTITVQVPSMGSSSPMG

T3: FcγRIIa type H (human, UniProt P12318 34-217)
T3 construct: extracellular domain; also called FcγRIIaH; FcgRIIaH
T3 sequence (looked up): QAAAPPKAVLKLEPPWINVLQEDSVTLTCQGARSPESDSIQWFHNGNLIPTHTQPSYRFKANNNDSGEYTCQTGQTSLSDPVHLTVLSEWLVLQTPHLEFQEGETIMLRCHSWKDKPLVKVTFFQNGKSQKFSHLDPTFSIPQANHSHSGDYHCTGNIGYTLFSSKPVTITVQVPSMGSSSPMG


Experiments:
FcγRIIb [1] = target: T1, FcγRIIb; assay: SPR (Biacore); parent = IL6R-B3/IL6R-L
FcγRIIa type R [2] = target: T2, FcγRIIa type R; assay: SPR (Biacore); parent = IL6R-B3/IL6R-L
FcγRIa = target: T4, FcγRIa (human, UniProt P12314 16-292); assay: SPR (Biacore), captured antibody, soluble FcγR
T4 construct: Whole entry named; also called FcgRIa; CD64A
T4 sequence (P12314 16-292): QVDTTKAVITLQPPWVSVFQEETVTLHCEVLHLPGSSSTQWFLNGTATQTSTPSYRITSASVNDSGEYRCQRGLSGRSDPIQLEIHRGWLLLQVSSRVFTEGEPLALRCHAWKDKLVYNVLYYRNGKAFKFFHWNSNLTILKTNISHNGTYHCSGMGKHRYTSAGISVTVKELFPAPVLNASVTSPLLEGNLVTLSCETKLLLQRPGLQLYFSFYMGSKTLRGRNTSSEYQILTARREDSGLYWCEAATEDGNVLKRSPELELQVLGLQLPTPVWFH

FcγRIIa type H = target: T3, FcγRIIa type H; assay: SPR (Biacore), captured antibody, soluble FcγR
FcγRIIb [3] = target: T1, FcγRIIb; assay: SPR (Biacore), captured antibody, soluble FcγR
FcγRIIa type R [4] = target: T2, FcγRIIa type R; assay: SPR (Biacore), captured antibody, soluble FcγR

| Binder | KD(IIb) of the parent polypeptide/KD(IIb) of the altered polypeptide (FcγRIIb [1]) [fold] | KD(IIaR) of the parent polypeptide/KD(IIaR) of the altered polypeptide (FcγRIIa type R [2]) [fold] | Kd (FcγRIa) [nM] | Kd (FcγRIIa type H) [nM] | Kd (FcγRIIb [3]) [nM] | Kd (FcγRIIa type R [4]) [nM] |
| --- | --- | --- | --- | --- | --- | --- |
| IL6R-BP538/IL6R-L (antibody, human IgG1, kappa, Alterations in EU numbering, introduced into IL6R-B3) heavy: QVQLQESGPGLVKPSETLSLTCAVSGHSISHDHAWSWVRQPPGEGLEWIGFISYSGITNYNPSLQGRVTISRDNSKNTLYLQMNSLRAEDTAVYYCARSLARTTAMDYWGEGTLVTVSSASTKGPSVFPLAPSSKSTSGGTAALGCLVKDYFPEPVTVSWNSGALTSGVHTFPAVLQSSGLYSLSSVVTVPSSSLGTQTYICNVNHKPSNTKVDKKVEPKSCDKTHTCPPCPAPELLGDDSVFLFPPKPKDTLMISRTPEVTCVVIDVSEEDGEVKFNWYVDGVEVHNAKTKPREEQYNSTYRVVSVLTVLHQDWLNGKEYKCKVSNKALPRPIEKTISKAKGQPREPQVYTLPPSRDELTKNQVSLTCLVKGFYPSDIAVEWESNGQPENNYKTTPPVLDSDGSFFLYSKLTVDKSRWQQGNVFSCSVMHEALHNHYTQESLSLSP light: not shown | 587 | 5.4 | 55 | 3000 | 5.3 | 200 |
| IL6R-BP539/IL6R-L (antibody, human IgG1, kappa, Alterations in EU numbering, introduced into IL6R-B3) heavy: QVQLQESGPGLVKPSETLSLTCAVSGHSISHDHAWSWVRQPPGEGLEWIGFISYSGITNYNPSLQGRVTISRDNSKNTLYLQMNSLRAEDTAVYYCARSLARTTAMDYWGEGTLVTVSSASTKGPSVFPLAPSSKSTSGGTAALGCLVKDYFPEPVTVSWNSGALTSGVHTFPAVLQSSGLYSLSSVVTVPSSSLGTQTYICNVNHKPSNTKVDKKVEPKSCDKTHTCPPCPAPELLGDDSVFLFPPKPKDTLMISRTPEVTCVVIDVGEEDGPVKFNWYVDGVEVHNAKTKPREEQDNSTYRVVSVLTVLHQDWLNGKEYKCKVSNKALPRPIEKTISKAKGQPREPQVYTLPPSRDELTKNQVSLTCLVKGFYPSDIAVEWESNGQPENNYKTTPPVLDSDGSFFLYSKLTVDKSRWQQGNVFSCSVMHEALHNHYTQESLSLSP light: not shown | 369 | 3.4 | 64 | 5600 | 8.4 | 330 |
| IL6R-BP540/IL6R-L (antibody, human IgG1, kappa, Alterations in EU numbering, introduced into IL6R-B3) heavy: QVQLQESGPGLVKPSETLSLTCAVSGHSISHDHAWSWVRQPPGEGLEWIGFISYSGITNYNPSLQGRVTISRDNSKNTLYLQMNSLRAEDTAVYYCARSLARTTAMDYWGEGTLVTVSSASTKGPSVFPLAPSSKSTSGGTAALGCLVKDYFPEPVTVSWNSGALTSGVHTFPAVLQSSGLYSLSSVVTVPSSSLGTQTYICNVNHKPSNTKVDKKVEPKSCDKTHTCPPCPAPELLGDDSVFLFPPKPKDTLMISRTPEVTCVVIDVSEEDGPVKFNWYVDGVEVHNAKTKPREEQDNSTYRVVSVLTVLHQDWLNGKEYKCKVSNKALPRPIEKTISKAKGQPREPQVYTLPPSRDELTKNQVSLTCLVKGFYPSDIAVEWESNGQPENNYKTTPPVLDSDGSFFLYSKLTVDKSRWQQGNVFSCSVMHEALHNHYTQESLSLSP light: not shown | 541 | 5.2 | 96 | 4600 | 5.7 | 210 |
| IL6R-BP550/IL6R-L (antibody, human IgG1, kappa, Alterations in EU numbering, introduced into IL6R-B3) heavy: QVQLQESGPGLVKPSETLSLTCAVSGHSISHDHAWSWVRQPPGEGLEWIGFISYSGITNYNPSLQGRVTISRDNSKNTLYLQMNSLRAEDTAVYYCARSLARTTAMDYWGEGTLVTVSSASTKGPSVFPLAPSSKSTSGGTAALGCLVKDYFPEPVTVSWNSGALTSGVHTFPAVLQSSGLYSLSSVVTVPSSSLGTQTYICNVNHKPSNTKVDKKVEPKSCDKTHTCPPCPAPELLGDDSVFLFPPKPKDTLMISRTPEVTCVVIDVGEEDGDVKFNWYVDGVEVHNAKTKPREEQDNSTYRVVSVLTVLHQDWLNGKEYKCKVSNKALPRPIEKTISKAKGQPREPQVYTLPPSRDELTKNQVSLTCLVKGFYPSDIAVEWESNGQPENNYKTTPPVLDSDGSFFLYSKLTVDKSRWQQGNVFSCSVMHEALHNHYTQESLSLSP light: not shown | 406 | 3.3 | 25 | 5000 | 7.6 | 340 |
